Source: PMC4772073

Biological target: dUltramarine2
Assay: SEC; gel filtration chromatography; conditions not given in the main text (Supplementary Fig. 7)

dUltramarine2
stoichiometry N: 2
